Data on two molecules can be found in patent US20190055314A1 (ADAGENE, published 2019).

One experiment has as its target T1, human CD137 ligand (human, UniProt P41273 71-254, limits assumed, biotinylated in Example 6).
T1 construct: also called HuCD137L; biotinylated CD137L
As to the kind of experiment: flow cytometry. For orientation: A flow cytometer gives signals particle by particle.

The target in a further experiment is T2, Hu_CRD2-CRD3-CRD4 (human, UniProt Q07011 46-159, limits assumed).
T2 construct: also called three CRD units (CRD2-CRD3-CRD4) of human CD137
Briefly: flow cytometry, yeast display [Cont.].

Another experiment has as its target T3, Hu_CRD1-CRD2-CRD3 (human, UniProt Q07011 24-118, limits assumed).
T3 construct: also called three CRD units (CRD1-CRD2-CRD3) of human CD137
Briefly: flow cytometry, yeast display [Cont.].

For the next experiment, the target named is T4, Hu_CRD3-CRD4 (human, UniProt Q07011 87-159, limits assumed).
T4 construct: also called two CRD units (CRD3-CRD4) of human CD137
As to the kind of experiment: flow cytometry, yeast display [Cont.].

Another experiment deals with T5, Hu_CRD3 (human, limits assumed).
T5 construct: also called human CD137 CRD3
T5 chain: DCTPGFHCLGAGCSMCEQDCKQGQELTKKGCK
As to the kind of experiment: flow cytometry, yeast display [Cont.].

In the next experiment the target is T6, Hu_CRD2-CRD3 (human, UniProt Q07011 46-118, limits assumed).
T6 construct: also called two CRD units (CRD2-CRD3) of human CD137
Briefly: flow cytometry, yeast display [Cont.].

The next experiment has as its target T7, Hu_CRD1-CRD2 (human, UniProt Q07011 24-86, limits assumed).
T7 construct: also called two CRD units (CRD1-CRD2) of human CD137
As to the kind of experiment: flow cytometry, yeast display [Cont.].

In another experiment the target is T8, Hu_CRD4 (human, UniProt Q07011 119-159, limits assumed).
T8 construct: also called human CD137 CRD4
T8 chain: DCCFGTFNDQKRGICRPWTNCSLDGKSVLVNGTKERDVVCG
As to the kind of experiment: flow cytometry, yeast display [Cont.].

The target of experiment [1] is T9, full-length human CD137 on the cell surface (human, UniProt Q07011 18-255).
T9 construct: also called Human WT
As to the kind of experiment: flow cytometry, yeast display [Cont.].

T1 sequence (P41273 71-254 limits assumed): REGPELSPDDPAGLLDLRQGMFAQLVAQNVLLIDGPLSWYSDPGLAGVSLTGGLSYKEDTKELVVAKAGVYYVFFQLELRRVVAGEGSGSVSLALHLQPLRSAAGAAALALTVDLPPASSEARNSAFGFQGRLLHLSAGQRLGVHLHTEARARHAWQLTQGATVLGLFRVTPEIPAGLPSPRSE

B1: full-length mouse CD137 on the cell surface (receptor)
chain: VQNSCDNCQPGTFCRKYNPVCKSCPPSTFSSIGGQPNCNICRVCAGYFRFKKFCSSTHNAECECIEGFHCLGPQCTRCEKDCRPGQELTKQGCKTCSLGTFNDQNGTGVCRPWTNCSLDGRSVLKTGTTEKDVVCGPPVVSFSPSTTISVTPEGG
In the case of B1, in the experiment with human CD137 ligand, the binding result is “no binding”.

B2: mouse CD137L (ligand, UniProt P41274 104-309, looked up)
chain: RTEPRPALTITTSPNLGTRENNADQVTPVSHIGCPNTTQQGSPVFAKLLAKNQASLCNTTLNWHSQDGAGSSYLSQGLRYEEDKKELVVDSPGLYYVFLELKLSPTFTNTGHKVQGWVSLVLQAKPQVDDFDNLALTVELFPCSMENKLVDRSWSQLLLLKAGHRLSVGLRAYLHGAQDAYRDWELSYPNTTSFGLFLVKPDNPWE
Take B2: the “% in upper right quadrant” value stood at 0.026% with Hu_CRD2-CRD3-CRD4; 0.19% with Hu_CRD1-CRD2-CRD3; 0.24% with Hu_CRD3-CRD4; 0.2% with Hu_CRD3; 0.19% with Hu_CRD2-CRD3; 0.16% with Hu_CRD1-CRD2. Also, in the experiment with Hu_CRD4, the “% in upper right quadrant” value is 0.15%. Also, the Mean in the experiment with Hu_CRD2-CRD3-CRD4 was 3260; with Hu_CRD1-CRD2-CRD3 it was 4700; with Hu_CRD3-CRD4, 10000; with Hu_CRD3 it was 46000; in the experiment with Hu_CRD2-CRD3 it was 15900; with Hu_CRD1-CRD2, 43800. In the experiment with Hu_CRD4, this molecule displayed a Mean of 9270. The binding result in experiment [1] is “no binding”.
